T1: PDZD2_1, O15018
T1 sequence (O15018 80-192, limits assumed, looked up): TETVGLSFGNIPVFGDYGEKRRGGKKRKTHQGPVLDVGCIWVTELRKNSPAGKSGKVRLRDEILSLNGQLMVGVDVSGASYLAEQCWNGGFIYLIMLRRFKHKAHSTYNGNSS

T2: MAGI2_1, Q86UL8
T2 sequence (Q86UL8 12-111, limits assumed, looked up): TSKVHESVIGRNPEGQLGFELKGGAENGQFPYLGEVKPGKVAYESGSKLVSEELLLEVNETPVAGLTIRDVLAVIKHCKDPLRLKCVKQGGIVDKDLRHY

T3: PDZD2_6, O15018
T3 sequence (O15018 2745-2839, limits assumed, looked up): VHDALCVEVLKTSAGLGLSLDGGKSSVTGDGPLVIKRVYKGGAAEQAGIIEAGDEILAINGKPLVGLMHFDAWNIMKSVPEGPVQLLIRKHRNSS

T4: PTPN13_5, Q12923
T4 sequence (Q12923 1877-1975, limits assumed, looked up): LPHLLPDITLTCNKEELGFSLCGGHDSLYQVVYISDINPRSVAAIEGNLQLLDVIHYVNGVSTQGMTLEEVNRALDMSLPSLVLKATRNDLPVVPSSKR

T5: GIPC1, O14908
T5 sequence (O14908 128-223, limits assumed, looked up): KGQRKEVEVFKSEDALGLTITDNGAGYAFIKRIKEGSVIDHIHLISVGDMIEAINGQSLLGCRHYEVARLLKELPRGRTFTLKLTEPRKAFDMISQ

T6: MPDZ_3, O75970
T6 sequence (O75970 372-473, limits assumed, looked up): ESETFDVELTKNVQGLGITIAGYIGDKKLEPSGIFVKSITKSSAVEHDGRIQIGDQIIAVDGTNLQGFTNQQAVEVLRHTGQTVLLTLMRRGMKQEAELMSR

T7: USH1C_1, Q9Y6N9
T7 sequence (Q9Y6N9 82-179, limits assumed, looked up): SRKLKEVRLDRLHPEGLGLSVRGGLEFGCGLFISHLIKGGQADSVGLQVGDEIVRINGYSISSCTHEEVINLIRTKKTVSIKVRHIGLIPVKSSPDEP

T8: MPDZ_2, O75970
T8 sequence (O75970 252-347, limits assumed, looked up): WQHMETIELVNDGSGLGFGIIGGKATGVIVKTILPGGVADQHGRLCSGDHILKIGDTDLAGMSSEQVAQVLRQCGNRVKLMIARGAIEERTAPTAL

T9: PDZD7_1, Q9H5P4
T9 sequence (Q9H5P4 81-178, limits assumed, looked up): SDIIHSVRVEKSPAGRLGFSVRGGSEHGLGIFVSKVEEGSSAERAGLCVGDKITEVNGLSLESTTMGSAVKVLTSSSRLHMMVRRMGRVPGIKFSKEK

T10: PDZD2_3, O15018
T10 sequence (O15018 581-682, limits assumed, looked up): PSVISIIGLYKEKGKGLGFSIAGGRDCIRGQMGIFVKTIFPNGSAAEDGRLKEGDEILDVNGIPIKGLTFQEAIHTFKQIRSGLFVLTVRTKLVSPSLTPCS

T11: SHROOM3, Q8TF72
T11 sequence (Q8TF72 20-120, limits assumed, looked up): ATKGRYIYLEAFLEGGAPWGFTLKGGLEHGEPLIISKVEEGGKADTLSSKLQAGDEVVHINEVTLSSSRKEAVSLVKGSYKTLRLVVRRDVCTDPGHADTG

T12: PDZRN3_2, Q9UPQ7
T12 sequence (Q9UPQ7 414-513, limits assumed, looked up): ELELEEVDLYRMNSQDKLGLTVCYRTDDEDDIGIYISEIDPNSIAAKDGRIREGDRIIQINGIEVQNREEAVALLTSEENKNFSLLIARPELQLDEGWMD

T13: USH1C_2, Q9Y6N9
T13 sequence (Q9Y6N9 206-303, limits assumed, looked up): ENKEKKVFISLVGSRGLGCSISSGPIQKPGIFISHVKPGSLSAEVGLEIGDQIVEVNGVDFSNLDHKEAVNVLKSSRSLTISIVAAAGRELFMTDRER


Legend:
Assay in all cases: holdup assay
Set-up in all cases: key: below the threshold = too weak to quantify, mostly under pKd 3.1 to 4
Conditions in all cases: plain residues with an end cap or a label only (N-terminal biotin on a linker: ttds)
AHNAK2, Q8IVF2 = molecular target: AHNAK2, Q8IVF2
PDZD2_1, O15018 = molecular target: T1, PDZD2_1, O15018
NHERF2_1, Q15599 = molecular target: NHERF2_1, Q15599
LMO7, Q8WWI1 = molecular target: LMO7, Q8WWI1
GRIP2_4, Q9C0E4 = molecular target: GRIP2_4, Q9C0E4
MAGI2_1, Q86UL8 = molecular target: T2, MAGI2_1, Q86UL8
PDZD2_6, O15018 = molecular target: T3, PDZD2_6, O15018
PTPN13_5, Q12923 = molecular target: T4, PTPN13_5, Q12923
MAGI3_5, Q5TCQ9 = molecular target: MAGI3_5, Q5TCQ9
GIPC1, O14908 = molecular target: T5, GIPC1, O14908
MPDZ_3, O75970 = molecular target: T6, MPDZ_3, O75970
IL16_2, Q14005 = molecular target: IL16_2, Q14005
USH1C_1, Q9Y6N9 = molecular target: T7, USH1C_1, Q9Y6N9
MPDZ_2, O75970 = molecular target: T8, MPDZ_2, O75970
MAST1, Q9Y2H9 = molecular target: MAST1, Q9Y2H9
PDZD7_1, Q9H5P4 = molecular target: T9, PDZD7_1, Q9H5P4
MAGI3_6, Q5TCQ9 = molecular target: MAGI3_6, Q5TCQ9
MAGIX, Q9H6Y5 = molecular target: MAGIX, Q9H6Y5
PDZRN4_2, Q6ZMN7 = molecular target: PDZRN4_2, Q6ZMN7
PDZD2_3, O15018 = molecular target: T10, PDZD2_3, O15018
TJP1_1, Q07157 = molecular target: TJP1_1, Q07157
SHROOM3, Q8TF72 = molecular target: T11, SHROOM3, Q8TF72
PDZRN3_2, Q9UPQ7 = molecular target: T12, PDZRN3_2, Q9UPQ7
USH1C_2, Q9Y6N9 = molecular target: T13, USH1C_2, Q9Y6N9

Chain of GRIP2_4, Q9C0E4 (Q9C0E4 446-548): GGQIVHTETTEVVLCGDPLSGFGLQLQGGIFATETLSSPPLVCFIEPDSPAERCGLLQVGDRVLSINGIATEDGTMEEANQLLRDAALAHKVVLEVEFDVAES
Chain of MAGI3_6, Q5TCQ9 (Q5TCQ9 1014-1103): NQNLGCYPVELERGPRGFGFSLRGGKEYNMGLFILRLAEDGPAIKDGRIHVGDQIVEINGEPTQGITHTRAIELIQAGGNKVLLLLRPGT
Chain of MAST1, Q9Y2H9 (Q9Y2H9 962-1065): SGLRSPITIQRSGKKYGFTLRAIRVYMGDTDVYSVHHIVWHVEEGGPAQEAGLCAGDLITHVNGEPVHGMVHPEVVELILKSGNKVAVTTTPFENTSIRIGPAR
Chain of PDZRN4_2, Q6ZMN7 (Q6ZMN7 389-498): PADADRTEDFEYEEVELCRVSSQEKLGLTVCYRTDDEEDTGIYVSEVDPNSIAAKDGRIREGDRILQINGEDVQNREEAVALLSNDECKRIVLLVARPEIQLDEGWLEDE
Chain of NHERF2_1, Q15599 (Q15599 9-91): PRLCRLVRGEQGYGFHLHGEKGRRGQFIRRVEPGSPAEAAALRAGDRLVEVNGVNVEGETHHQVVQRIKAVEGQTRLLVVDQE
Chain of MAGI3_5, Q5TCQ9 (Q5TCQ9 847-941): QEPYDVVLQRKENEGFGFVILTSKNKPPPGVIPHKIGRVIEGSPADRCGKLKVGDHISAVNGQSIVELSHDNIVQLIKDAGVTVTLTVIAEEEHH
Chain of IL16_2, Q14005 (Q14005 350-450): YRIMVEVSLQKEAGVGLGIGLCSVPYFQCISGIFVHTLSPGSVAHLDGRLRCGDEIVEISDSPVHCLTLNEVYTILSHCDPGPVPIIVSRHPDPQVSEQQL
Chain of LMO7, Q8WWI1 (Q8WWI1 1037-1138): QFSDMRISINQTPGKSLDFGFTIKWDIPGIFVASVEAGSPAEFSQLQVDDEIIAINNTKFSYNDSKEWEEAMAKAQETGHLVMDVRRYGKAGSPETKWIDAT
Chain of AHNAK2, Q8IVF2 (Q8IVF2 108-193): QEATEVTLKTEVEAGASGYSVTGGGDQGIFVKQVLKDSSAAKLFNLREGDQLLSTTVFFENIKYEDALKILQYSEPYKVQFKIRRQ
Chain of MAGIX, Q9H6Y5 (Q9H6Y5 118-211): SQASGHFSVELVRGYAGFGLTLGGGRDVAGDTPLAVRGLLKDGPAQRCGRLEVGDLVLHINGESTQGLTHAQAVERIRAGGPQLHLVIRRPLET
Chain of TJP1_1, Q07157 (Q07157 18-120): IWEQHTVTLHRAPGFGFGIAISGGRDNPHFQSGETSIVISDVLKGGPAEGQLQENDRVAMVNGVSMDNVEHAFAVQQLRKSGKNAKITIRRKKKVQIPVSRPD

Binder | pKd (AHNAK2, Q8IVF2) | pKd (PDZD2_1, O15018) | pKd (NHERF2_1, Q15599) | pKd (LMO7, Q8WWI1) | pKd (GRIP2_4, Q9C0E4) | pKd (MAGI2_1, Q86UL8) | pKd (PDZD2_6, O15018) | pKd (PTPN13_5, Q12923) | pKd (MAGI3_5, Q5TCQ9) | pKd (GIPC1, O14908) | pKd (MPDZ_3, O75970) | pKd (IL16_2, Q14005) | pKd (MPDZ_2, O75970) | pKd (MAST1, Q9Y2H9) | pKd (PDZD7_1, Q9H5P4) | pKd (MAGI3_6, Q5TCQ9) | pKd (MAGIX, Q9H6Y5) | pKd (PDZRN4_2, Q6ZMN7) | pKd (PDZD2_3, O15018) | pKd (TJP1_1, Q07157) | further results
RRVRKLPSTTL [RPS6KA1, Q15418] | below the threshold | below the threshold | below the threshold | below the threshold | below the threshold | below the threshold | below the threshold | 3.84 | below the threshold | below the threshold | 3.81 | below the threshold | below the threshold | 4.68 | below the threshold | below the threshold | below the threshold | below the threshold | below the threshold | below the threshold | pKd (SHROOM3, Q8TF72): below the threshold; pKd (PDZRN3_2, Q9UPQ7): below the threshold; pKd (USH1C_2, Q9Y6N9): below the threshold
TGDTLEKFVEGL [CBP, Q92793] | below the threshold | below the threshold | 3.84 |  | below the threshold | below the threshold | 3.86 | below the threshold | below the threshold | below the threshold | 4.11 | below the threshold | below the threshold | below the threshold | below the threshold | below the threshold | below the threshold | below the threshold | below the threshold | below the threshold | pKd (SHROOM3, Q8TF72): below the threshold; pKd (USH1C_1, Q9Y6N9): below the threshold
NYWPGKETQL [SLCO1C1, Q9NYB5] | 4.41 | below the threshold | below the threshold | below the threshold | below the threshold | below the threshold | below the threshold | below the threshold | below the threshold | below the threshold | below the threshold | below the threshold | below the threshold | 5.26 | below the threshold | 4.36 | 5.35 | below the threshold | below the threshold | below the threshold | pKd (SHROOM3, Q8TF72): below the threshold; pKd (PDZRN3_2, Q9UPQ7): below the threshold; pKd (USH1C_2, Q9Y6N9): below the threshold; pKd (USH1C_1, Q9Y6N9): below the threshold

Now from value to binder, other results behind:

pKd (AHNAK2, Q8IVF2) | pKd (PDZD2_1, O15018) | pKd (NHERF2_1, Q15599) | pKd (LMO7, Q8WWI1) | pKd (GRIP2_4, Q9C0E4) | pKd (MAGI2_1, Q86UL8) | pKd (PDZD2_6, O15018) | pKd (PTPN13_5, Q12923) | pKd (MAGI3_5, Q5TCQ9) | pKd (GIPC1, O14908) | pKd (MPDZ_3, O75970) | pKd (IL16_2, Q14005) | pKd (MPDZ_2, O75970) | pKd (MAST1, Q9Y2H9) | pKd (PDZD7_1, Q9H5P4) | pKd (MAGI3_6, Q5TCQ9) | pKd (MAGIX, Q9H6Y5) | pKd (PDZRN4_2, Q6ZMN7) | pKd (PDZD2_3, O15018) | pKd (TJP1_1, Q07157) | Binder | further results
below the threshold | below the threshold | below the threshold | below the threshold | below the threshold | below the threshold | 3.56 | below the threshold | below the threshold | below the threshold | below the threshold | below the threshold | below the threshold | 4.79 | below the threshold | below the threshold | below the threshold | below the threshold | below the threshold | 3.58 | DEDQHTQITKV [PTEN, P60484] | pKd (USH1C_1, Q9Y6N9): below the threshold
below the threshold | below the threshold | below the threshold | below the threshold | below the threshold | below the threshold | below the threshold | below the threshold | below the threshold | below the threshold | below the threshold | below the threshold | below the threshold | below the threshold | below the threshold | below the threshold | below the threshold | below the threshold | below the threshold | below the threshold | QPGTPTRTAV [MAP2K2, P36507] | pKd (SHROOM3, Q8TF72): below the threshold; pKd (PDZRN3_2, Q9UPQ7): below the threshold; pKd (USH1C_2, Q9Y6N9): below the threshold; pKd (USH1C_1, Q9Y6N9): below the threshold
below the threshold | below the threshold | below the threshold | below the threshold | below the threshold | below the threshold | below the threshold | below the threshold | below the threshold | below the threshold | below the threshold | below the threshold | below the threshold | 4.91 | below the threshold | 4.34 | below the threshold | below the threshold | below the threshold | below the threshold | CLDTSRETDL [KCNA5, P22460] | pKd (SHROOM3, Q8TF72): below the threshold; pKd (PDZRN3_2, Q9UPQ7): below the threshold; pKd (USH1C_2, Q9Y6N9): below the threshold; pKd (USH1C_1, Q9Y6N9): below the threshold

Reference: article PMC9482650, “Quantitative fragmentomics allow affinity mapping of interactomes” (Nature Communications, 2022)
